Data: article PMC8050316, “Tissue plasminogen activator is a ligand of cation-independent mannose 6-phosphate receptor and consists of glycoforms that contain mannose 6-phosphate” (Scientific Reports, 2021)

Legend:
[1] = molecular target: human cation-independent mannose 6-phosphate receptor domains 1-15 (entire extracellular region) (human) (UniProt P11717); test: SPR; biotinylated human CI-MPR d1-15 on a streptavidin-coupled CM5 chip, tPA injected at various concentrations, 25 °C, 40 µl/min for 2 min, response at equilibrium fit with a one site specific binding model
[2] = molecular target: human cation-independent mannose 6-phosphate receptor domains 1-5 (human) (UniProt P11717); test: SPR; C-terminally biotinylated human CI-MPR d1-5 on a streptavidin chip; tPA injected at various concentrations, one site specific binding fit; tPA at 120 nM with 5 mM M6P or 5 mM G6P
Sequence of human cation-independent mannose 6-phosphate receptor domains 1-5 (human) (P11717 36-763): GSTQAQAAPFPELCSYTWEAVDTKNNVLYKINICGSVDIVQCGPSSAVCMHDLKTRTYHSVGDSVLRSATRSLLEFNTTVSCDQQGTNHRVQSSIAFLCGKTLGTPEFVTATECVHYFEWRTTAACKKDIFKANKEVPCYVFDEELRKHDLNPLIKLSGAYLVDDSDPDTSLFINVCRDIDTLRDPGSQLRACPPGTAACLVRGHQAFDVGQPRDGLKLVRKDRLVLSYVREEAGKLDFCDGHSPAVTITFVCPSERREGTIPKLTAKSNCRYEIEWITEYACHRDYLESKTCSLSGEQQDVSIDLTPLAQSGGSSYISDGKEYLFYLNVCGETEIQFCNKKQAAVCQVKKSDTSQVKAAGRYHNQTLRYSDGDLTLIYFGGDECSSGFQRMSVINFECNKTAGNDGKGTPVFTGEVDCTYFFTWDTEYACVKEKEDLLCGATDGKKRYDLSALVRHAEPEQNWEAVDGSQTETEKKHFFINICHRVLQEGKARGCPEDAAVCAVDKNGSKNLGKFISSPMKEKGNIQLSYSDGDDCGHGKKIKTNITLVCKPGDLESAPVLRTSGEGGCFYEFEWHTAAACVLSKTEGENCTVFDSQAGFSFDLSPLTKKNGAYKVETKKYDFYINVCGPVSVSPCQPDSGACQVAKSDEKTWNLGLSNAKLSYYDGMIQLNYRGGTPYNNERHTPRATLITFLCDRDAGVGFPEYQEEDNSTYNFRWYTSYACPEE

[3] = molecular target: bovine cation-independent mannose 6-phosphate receptor domains 1-15 (entire extracellular region) (bovine) (UniProt P08169); test: SPR; bovine CI-MPR d1-15 amine coupled to a CM5 chip, tPA injected at various concentrations, 25 °C, response at equilibrium fit with a one site specific binding model
Sequence of bovine cation-independent mannose 6-phosphate receptor domains 1-15 (entire extracellular region) (bovine) (P08169 47-2296): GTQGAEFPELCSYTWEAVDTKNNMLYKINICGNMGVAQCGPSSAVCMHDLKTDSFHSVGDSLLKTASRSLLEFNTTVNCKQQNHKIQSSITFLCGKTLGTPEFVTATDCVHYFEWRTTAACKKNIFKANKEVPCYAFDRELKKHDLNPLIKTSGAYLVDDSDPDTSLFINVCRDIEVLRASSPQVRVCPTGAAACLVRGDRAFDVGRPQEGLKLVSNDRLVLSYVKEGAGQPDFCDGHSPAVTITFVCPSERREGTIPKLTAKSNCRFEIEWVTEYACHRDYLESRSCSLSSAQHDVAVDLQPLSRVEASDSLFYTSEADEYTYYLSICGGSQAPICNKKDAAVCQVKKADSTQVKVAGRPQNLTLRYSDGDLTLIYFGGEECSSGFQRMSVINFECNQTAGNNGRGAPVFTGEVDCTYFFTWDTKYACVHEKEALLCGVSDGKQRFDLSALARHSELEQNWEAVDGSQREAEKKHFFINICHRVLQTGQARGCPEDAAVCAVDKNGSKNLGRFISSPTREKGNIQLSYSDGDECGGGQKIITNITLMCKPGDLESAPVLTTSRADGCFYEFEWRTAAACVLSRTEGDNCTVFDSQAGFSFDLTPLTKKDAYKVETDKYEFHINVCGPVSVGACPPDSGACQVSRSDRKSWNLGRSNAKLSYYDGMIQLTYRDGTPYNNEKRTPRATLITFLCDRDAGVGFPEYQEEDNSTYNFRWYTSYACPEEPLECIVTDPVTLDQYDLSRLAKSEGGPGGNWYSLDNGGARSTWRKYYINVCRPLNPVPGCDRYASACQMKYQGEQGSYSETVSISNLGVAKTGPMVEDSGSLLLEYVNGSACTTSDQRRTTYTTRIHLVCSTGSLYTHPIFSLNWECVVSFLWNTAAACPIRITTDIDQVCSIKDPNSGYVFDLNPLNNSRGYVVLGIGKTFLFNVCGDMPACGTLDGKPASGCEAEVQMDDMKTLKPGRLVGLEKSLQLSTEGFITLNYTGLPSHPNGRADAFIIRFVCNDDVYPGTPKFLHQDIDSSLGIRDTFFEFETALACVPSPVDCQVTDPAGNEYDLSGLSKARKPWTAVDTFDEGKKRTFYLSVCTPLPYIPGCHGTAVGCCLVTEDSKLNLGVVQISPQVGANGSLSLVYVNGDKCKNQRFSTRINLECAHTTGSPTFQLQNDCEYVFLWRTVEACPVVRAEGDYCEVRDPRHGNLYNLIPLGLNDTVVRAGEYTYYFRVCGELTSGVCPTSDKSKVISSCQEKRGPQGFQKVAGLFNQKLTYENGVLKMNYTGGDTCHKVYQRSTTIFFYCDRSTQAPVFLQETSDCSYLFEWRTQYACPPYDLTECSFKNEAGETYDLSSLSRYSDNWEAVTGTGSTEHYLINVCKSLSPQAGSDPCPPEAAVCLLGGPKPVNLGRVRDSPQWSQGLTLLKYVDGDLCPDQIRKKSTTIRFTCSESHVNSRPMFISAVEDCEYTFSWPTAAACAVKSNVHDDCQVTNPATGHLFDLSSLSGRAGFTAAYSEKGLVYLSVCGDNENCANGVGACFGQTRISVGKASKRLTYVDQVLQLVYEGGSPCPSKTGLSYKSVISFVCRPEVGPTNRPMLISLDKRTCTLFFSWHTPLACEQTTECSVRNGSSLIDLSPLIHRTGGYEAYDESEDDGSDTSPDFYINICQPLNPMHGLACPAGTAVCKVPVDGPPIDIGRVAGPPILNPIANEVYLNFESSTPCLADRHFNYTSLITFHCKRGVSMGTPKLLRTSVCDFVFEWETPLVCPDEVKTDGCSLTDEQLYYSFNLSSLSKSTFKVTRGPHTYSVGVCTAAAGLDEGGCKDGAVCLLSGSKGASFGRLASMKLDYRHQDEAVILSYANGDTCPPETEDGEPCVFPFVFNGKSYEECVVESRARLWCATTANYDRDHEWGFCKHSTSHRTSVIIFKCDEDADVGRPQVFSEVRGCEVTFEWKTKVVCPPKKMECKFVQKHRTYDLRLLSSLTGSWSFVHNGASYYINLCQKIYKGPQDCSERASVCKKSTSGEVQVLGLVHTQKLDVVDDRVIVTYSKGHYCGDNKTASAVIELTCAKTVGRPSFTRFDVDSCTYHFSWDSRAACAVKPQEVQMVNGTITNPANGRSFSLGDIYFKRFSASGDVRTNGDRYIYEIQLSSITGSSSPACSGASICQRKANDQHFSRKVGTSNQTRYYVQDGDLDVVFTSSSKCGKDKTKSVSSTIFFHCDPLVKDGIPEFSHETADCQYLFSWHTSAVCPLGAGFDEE

[4] = molecular target: bovine cation-independent mannose 6-phosphate receptor domains 1-15 (entire extracellular region) (bovine) (UniProt P08169); test: SPR; bovine CI-MPR d1-15 amine coupled; mock- or phosphatase-treated proteins injected in 10 mM HEPES, 150 mM sodium acetate, 5 mM β-glycerophosphate, 0.005% polysorbate-20, pH 7.4; tPA at 80 nM with 5 mM M6P, 5 mM G6P or no inhibitor
[5] = molecular target: T1, bovine cation-independent mannose 6-phosphate receptor domains 1-15 (entire extracellular region) (bovine, UniProt P08169 47-2296); test: SPR; recombinant tPA, native tPA or β-glucuronidase amine coupled; bovine CI-MPR d1-15 at 20 nM injected after preincubation with M6P, G6P or αMeMan (0.1, 1.0, 5.0 mM); details: both partners purified
T1 construct: cation-independent mannose 6-phosphate receptor (CI-MPR), bovine, domains 1-15, amino acids 47-2296; also called bovine CI-MPR d1-15; CI-MPR d1-15; source: Sf9, secreted, purified (Ni-NTA, Sephacryl S-300)
T1 sequence (P08169 47-2296): as above

| Molecule | Kd [1] [nM] | Kd [2] [nM] | percent decrease in response at equilibrium with 5 mM G6P [2] [%] | percent decrease in response at equilibrium with 5 mM M6P [2] [%] | Kd [3] [nM] | percent decrease in response with 5 mM G6P [4] [%] | percent decrease in response with 5 mM M6P [4] [%] | percent decrease in average response with 5 mM G6P [4] [%] | percent decrease in average response with 5 mM M6P [4] [%] | binding result [5] |
| --- | --- | --- | --- | --- | --- | --- | --- | --- | --- | --- |
| native tissue plasminogen activator isolated from a human melanoma cell line (enzyme) | 81 | 155 | 21 | 39 | 214 | – | – | – | – | – |
| phosphatase-treated recombinant tissue plasminogen activator (enzyme) | – | – | – | – | – | 12 | 13 | – | – | – |
| recombinant human tissue plasminogen activator (Cathflo Activase, alteplase) (enzyme) | 23 | 134 | 20 | 40 | 108 | – | – | 26 | 55 | – |
| human β-glucuronidase (enzyme, UniProt P08236 23-651, looked up, M6P on its N-linked glycans, β-glucuronidase, human, lysosomal enzyme; also called mock-treated β-glucuronidase) LQGGMLYPQESPSRECKELDGLWSFRADFSDNRRRGFEEQWYRRPLWESGPTVDMPVPSSFNDISQDWRLRHFVGWVWYEREVILPERWTQDLRTRVVLRIGSAHSYAIVWVNGVDTLEHEGGYLPFEADISNLVQVGPLPSRLRITIAINNTLTPTTLPPGTIQYLTDTSKYPKGYFVQNTYFDFFNYAGLQRSVLLYTTPTTYIDDITVTTSVEQDSGLVNYQISVKGSNLFKLEVRLLDAENKVVANGTGTQGQLKVPGVSLWWPYLMHERPAYLYSLEVQLTAQTSLGPVSDFYTLPVGIRTVAVTKSQFLINGKPFYFHGVNKHEDADIRGKGFDWPLLVKDFNLLRWLGANAFRTSHYPYAEEVMQMCDRYGIVVIDECPGVGLALPQFFNNVSLHHHMQVMEEVVRRDKNHPAVVMWSVANEPASHLESAGYYLKMVIAHTKSLDPSRPVTFVSNSNYAADKGAPYVDVICLNSYYSWYHDYGHLELIQLQLATQFENWYKKYQKPIIQSEYGAETIAGFHQDPPLMFTEEYQKSLLEQYHLGLDQKRRKYVVGELIWNFADFMTEQSPTRVLGNKKGIFTRQRQPKSAAFLLRERYWKIANETRYPHSVAKSQCLENSLFT | – | – | – | – | – | – | – | – | – | binds |
